The text below walks through data of patent US11124550B2, “Proteinaceous molecules and methods of use” (priority 2015, dated 2021).

pEC50: −log10 of the molar value. Positions of bridges follow the written chain, without caps; N, C: chain ends. Residues, ends and D or L forms follow the SMILES beside them.

The subject of one data set is TG or DRG neurons. Nature of the data set: Calcium imaging of cultured somatosensory neurons (Fura-2). The data set is classed as cell-based, rat.
The target of data set [1] is T1, hNav1.1 (Homo sapiens, UniProt P35498).
T1 construct: expressed in transfected cells; host or cells: HEK293T
Nature of the data set: Automated whole-cell patch clamp (QPatch 16X), sustained currents in HEK293 cells. Type of data set: cell-based. Particulars: for fast inactivation and sustained current at end of depolarising pulse, hNav1.1: 300 nM; for pEC50: HEK293 cells stably expressing hNav1.1, n=3, read-out: EC50 for evoking sustained currents at hNav1.1. Here is the method:
The activity of recombinant Hm1b was assessed at hNav1.1-1.7. Sodium currents were measured from hNav channels stably expressed in HEK293 cells using an automated whole-cell patch-clamp electrophysiology system (QPatch 16X; Sophion, Ballerup, Denmark). The extracellular solution comprised 2 mM CaCl2), 1 mM MgCl2, 10 mM HEPES, 4 mM KCl, 145 mM NaCl, 10 mM D-glucose at pH 7.3, and 305 mOsm. The intracellular solution comprised 140 mM CsF, 1 mM/5 mM EGTA/CsOH, 10 mM HEPES, 10 mM NaCl at pH 7.3, osmolality 320 mOsm. The elicited currents were sampled at 25 kHz and filtered at 5 kHz. Cells were maintained at a holding potential of −80 mV and sodium currents were elicited by 210 ms voltage steps at 0 mV after a 50 ms conditioning step from −120 mV. For dose-response experiments, cells were incubated for 5 min with increasing concentrations of Hm1b. Peptide stock solutions were made up to 10 μM and serial dilutions were prepared in extracellular solution containing 0.1% BSA. Graphs and fittings were performed using Prism 7.0 (GraphPad Software, San Diego, Calif.). Numerical data are presented as mean SEM based on at least three experiments (n≥3).
The point mutation (Lys to Ser at position 11) was introduced into the pLIC-MBP-Hm1b expression plasmid (produced according to the methods of Example 7) by polymerase chain reaction (PCR) using mutagenic primers and standard protocols with Platinum Pfx DNA Polymerase (Invitrogen). Mutagenic primers were designed using the online tool PrimerX and synthesised by Integrated DNA Technologies, Inc. (Emu Heights, NSW). DNA from the mutant construct was isolated and sequenced to verify the desired mutation (AGRF, Brisbane, Australia). Plasmid DNA was isolated using ISOLATE II plasmid Mini Kit (Bioline, London, UK) for transformation into E. coli BL21 cells for recombinant peptide production. […].

The nature of another data set: in vitro. Particulars: human, cerebrospinal or other body fluid.
Data set [2] addresses T1, hNav1.1. As to the kind of experiment: Automated planar whole-cell patch clamp (Patchliner), hSCN1A HEK293T cells. Type of data set: cell-based. The text has this: (§1) To characterize the functional activity of Hm1a and Hm1b, HEK293T cells stably transfected with either hSCN1A, hSCN2A, hSCN3A, hSCN5A, hSCN9A or hSCN10A as well as CHO cells stably transfected with hSCN4A or hSCN8A were used for whole-cell patch-clamp analysis with a high throughput automated planar patch-clamp technology.
(§2) HEK293T cells stably transfected with either hSCN1A, hSCN2A, hSCN3A, hSCN5A, hSCN9A or hSCN10A were maintained in Dulbecco's Modified Eagle's Medium Nutrient Mixture F-12 (Invitrogen, Carlsbad, Calif., USA) supplemented with 10% (v/v) foetal bovine serum (FBS) (Invitrogen), 0.9% Penicillin/Streptomycin (P/S) solution and 100 μg/mL hygromycin or 100 μg/mL neomycin. CHO cells stably transfected with hSCN4A or hSCN8A were maintained in Ham's F12 Nutrient Mixture (Invitrogen, Carlsbad, Calif., USA) supplemented with 10% (v/v) FBS, 0.9% P/S solution and 100 μg/mL hygromycin. All cells were grown in T75 flasks (BD Biosciences, San Jose, Calif., USA) to ˜70% confluency.
Patch-clamp recordings were conducted in the whole-cell configuration using a Patchliner® (Nanion Technologies, Munich, Germany). Before recordings, cells were detached from culture flasks with Accutase Cell Detachment Solution (Innovative Cell Technologies Inc., San Diego, Calif., USA) and resuspended at a density of 1×10^6 to 5×10^7 per milliliter in 50% serum free media and 50% external recording solution v/v. The external recording solution comprised: 140 mM NaCl, 4 mM KCl, 1 mM MgCl2, 2 mM CaCl2), 5 mM D-glucose, 10 mM HEPES (pH adjusted to 7.4 with NaOH). The osmolarity of this solution was 298 mOsm. The internal recording solution comprised: 50 mM CsCl, 10 mM NaCl, 60 mM CsF, 2 mM MgCl2, 20 mM EGTA, 10 mM HEPES (pH adjusted to 7.2 with CsOH) and the osmolarity of this solution was 285 mOsm. […]
(§3) The voltage dependence of activation was studied by measuring the normalised peak currents during 100 ms depolarisations from −120 mV to +30 mV in 5 mV increments. The resulting current-voltage curve was fit to the equation I=[I+exp(−0.03937.z.(V−V1/2)]/g.(V−Vr), where I is current amplitude; z is apparent gating charge; V is test potential; V1/2 is half maximal voltage; g is a factor related to the maximum number of open channels; and Vr is reversal potential. Conductance was determined using G=I/(V−Vr), where G is conductance. The conductance values were then fit with the Boltzmann equation G=1/(1+exp[(V−V1/2)/a]), where a is the slope of the half-maximum, V is the potential of the given pulse and V1/2 is the potential for the half-maximal activation. To study steady-state fast inactivation, cells were held at conditioning pre-pulse potentials ranging from −120 mV to +30 mV in 5 mV increments from a holding potential of −120 mV and a test pulse at 0 mV for 20 ms. […]

The target in a further data set is T2, hNav1.3 (Homo sapiens, UniProt Q9NY46).
T2 construct: expressed in transfected cells; host or cells: HEK293T
Nature of the data set: Automated planar whole-cell patch clamp (Patchliner), hSCN3A HEK293T cells. Type of data set: cell-based.
From the text: as §1, §2
(§4) Patch-clamp recordings were conducted in the whole-cell configuration using a Patchliner® (Nanion Technologies, Munich, Germany). […]
as §3

For another data set, the target named is T3, hNav1.2 (Homo sapiens, UniProt Q99250).
T3 construct: expressed in transfected cells; host or cells: HEK293T
As to the kind of experiment: Automated planar whole-cell patch clamp (Patchliner), hSCN2A HEK293T cells. The data set is classed as cell-based.
From the text: as §1, §2, §4, §3

The target of the next data set is T4, hNav1.6 (Homo sapiens, UniProt Q9UQD0).
T4 construct: expressed in transfected cells; host or cells: CHO
Nature of the data set: Automated planar whole-cell patch clamp (Patchliner), hSCN8A CHO cells. Type of data set: cell-based.
From the text: as §1, §2, §4, §3

Where [3] appears, read: 5 nM and 50 nM, potentials more positive than −15 mV.

T4 sequence (Q9UQD0 whole entry): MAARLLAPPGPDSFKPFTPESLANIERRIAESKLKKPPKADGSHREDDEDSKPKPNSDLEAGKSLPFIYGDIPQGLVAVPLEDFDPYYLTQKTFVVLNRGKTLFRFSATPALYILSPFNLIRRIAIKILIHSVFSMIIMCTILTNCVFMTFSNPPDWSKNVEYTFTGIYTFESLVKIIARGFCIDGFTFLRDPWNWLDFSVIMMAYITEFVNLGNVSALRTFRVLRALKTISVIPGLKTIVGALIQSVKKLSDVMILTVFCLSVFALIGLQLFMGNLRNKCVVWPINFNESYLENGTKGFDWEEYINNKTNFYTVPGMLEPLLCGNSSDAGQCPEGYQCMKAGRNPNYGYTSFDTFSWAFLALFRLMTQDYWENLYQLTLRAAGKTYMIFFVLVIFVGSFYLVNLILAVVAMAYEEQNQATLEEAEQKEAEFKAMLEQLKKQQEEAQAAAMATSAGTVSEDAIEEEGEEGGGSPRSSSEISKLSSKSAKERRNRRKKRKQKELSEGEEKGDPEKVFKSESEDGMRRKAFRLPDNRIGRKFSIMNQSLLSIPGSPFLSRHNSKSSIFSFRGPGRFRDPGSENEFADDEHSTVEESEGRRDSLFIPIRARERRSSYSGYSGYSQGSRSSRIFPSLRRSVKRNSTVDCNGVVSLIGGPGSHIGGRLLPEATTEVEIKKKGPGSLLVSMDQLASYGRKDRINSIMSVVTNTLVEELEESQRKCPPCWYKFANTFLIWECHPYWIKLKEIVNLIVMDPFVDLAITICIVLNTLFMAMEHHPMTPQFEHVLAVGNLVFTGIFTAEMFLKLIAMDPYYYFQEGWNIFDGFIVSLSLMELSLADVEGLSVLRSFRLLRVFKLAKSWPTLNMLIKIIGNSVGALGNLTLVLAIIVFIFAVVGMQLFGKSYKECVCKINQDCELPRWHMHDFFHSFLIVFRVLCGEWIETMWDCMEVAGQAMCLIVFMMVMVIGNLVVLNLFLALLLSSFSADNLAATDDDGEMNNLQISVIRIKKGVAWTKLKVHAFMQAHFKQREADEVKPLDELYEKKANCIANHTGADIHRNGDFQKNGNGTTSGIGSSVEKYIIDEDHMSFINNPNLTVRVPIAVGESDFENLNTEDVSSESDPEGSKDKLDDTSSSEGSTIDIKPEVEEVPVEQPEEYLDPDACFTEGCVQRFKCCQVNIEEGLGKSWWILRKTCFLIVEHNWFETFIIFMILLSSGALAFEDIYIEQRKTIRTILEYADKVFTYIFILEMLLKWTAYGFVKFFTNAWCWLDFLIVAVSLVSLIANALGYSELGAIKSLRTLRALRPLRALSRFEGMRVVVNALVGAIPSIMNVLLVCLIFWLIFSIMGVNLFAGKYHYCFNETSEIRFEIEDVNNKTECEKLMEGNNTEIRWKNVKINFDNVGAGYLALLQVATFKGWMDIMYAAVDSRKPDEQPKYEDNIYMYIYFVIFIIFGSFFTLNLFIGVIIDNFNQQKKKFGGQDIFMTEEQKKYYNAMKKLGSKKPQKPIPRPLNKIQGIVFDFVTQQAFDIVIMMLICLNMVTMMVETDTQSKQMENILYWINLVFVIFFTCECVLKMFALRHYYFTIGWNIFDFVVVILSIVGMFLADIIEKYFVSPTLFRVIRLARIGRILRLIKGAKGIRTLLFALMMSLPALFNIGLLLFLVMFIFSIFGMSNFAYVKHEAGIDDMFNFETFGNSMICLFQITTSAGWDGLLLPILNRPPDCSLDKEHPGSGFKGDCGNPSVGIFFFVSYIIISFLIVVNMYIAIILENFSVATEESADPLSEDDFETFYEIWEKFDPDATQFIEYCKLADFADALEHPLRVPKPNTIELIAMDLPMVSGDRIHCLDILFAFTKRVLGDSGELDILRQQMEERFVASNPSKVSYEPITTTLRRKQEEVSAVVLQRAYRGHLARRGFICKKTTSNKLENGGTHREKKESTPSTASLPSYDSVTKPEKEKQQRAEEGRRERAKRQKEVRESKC
T3 sequence (Q99250 whole entry): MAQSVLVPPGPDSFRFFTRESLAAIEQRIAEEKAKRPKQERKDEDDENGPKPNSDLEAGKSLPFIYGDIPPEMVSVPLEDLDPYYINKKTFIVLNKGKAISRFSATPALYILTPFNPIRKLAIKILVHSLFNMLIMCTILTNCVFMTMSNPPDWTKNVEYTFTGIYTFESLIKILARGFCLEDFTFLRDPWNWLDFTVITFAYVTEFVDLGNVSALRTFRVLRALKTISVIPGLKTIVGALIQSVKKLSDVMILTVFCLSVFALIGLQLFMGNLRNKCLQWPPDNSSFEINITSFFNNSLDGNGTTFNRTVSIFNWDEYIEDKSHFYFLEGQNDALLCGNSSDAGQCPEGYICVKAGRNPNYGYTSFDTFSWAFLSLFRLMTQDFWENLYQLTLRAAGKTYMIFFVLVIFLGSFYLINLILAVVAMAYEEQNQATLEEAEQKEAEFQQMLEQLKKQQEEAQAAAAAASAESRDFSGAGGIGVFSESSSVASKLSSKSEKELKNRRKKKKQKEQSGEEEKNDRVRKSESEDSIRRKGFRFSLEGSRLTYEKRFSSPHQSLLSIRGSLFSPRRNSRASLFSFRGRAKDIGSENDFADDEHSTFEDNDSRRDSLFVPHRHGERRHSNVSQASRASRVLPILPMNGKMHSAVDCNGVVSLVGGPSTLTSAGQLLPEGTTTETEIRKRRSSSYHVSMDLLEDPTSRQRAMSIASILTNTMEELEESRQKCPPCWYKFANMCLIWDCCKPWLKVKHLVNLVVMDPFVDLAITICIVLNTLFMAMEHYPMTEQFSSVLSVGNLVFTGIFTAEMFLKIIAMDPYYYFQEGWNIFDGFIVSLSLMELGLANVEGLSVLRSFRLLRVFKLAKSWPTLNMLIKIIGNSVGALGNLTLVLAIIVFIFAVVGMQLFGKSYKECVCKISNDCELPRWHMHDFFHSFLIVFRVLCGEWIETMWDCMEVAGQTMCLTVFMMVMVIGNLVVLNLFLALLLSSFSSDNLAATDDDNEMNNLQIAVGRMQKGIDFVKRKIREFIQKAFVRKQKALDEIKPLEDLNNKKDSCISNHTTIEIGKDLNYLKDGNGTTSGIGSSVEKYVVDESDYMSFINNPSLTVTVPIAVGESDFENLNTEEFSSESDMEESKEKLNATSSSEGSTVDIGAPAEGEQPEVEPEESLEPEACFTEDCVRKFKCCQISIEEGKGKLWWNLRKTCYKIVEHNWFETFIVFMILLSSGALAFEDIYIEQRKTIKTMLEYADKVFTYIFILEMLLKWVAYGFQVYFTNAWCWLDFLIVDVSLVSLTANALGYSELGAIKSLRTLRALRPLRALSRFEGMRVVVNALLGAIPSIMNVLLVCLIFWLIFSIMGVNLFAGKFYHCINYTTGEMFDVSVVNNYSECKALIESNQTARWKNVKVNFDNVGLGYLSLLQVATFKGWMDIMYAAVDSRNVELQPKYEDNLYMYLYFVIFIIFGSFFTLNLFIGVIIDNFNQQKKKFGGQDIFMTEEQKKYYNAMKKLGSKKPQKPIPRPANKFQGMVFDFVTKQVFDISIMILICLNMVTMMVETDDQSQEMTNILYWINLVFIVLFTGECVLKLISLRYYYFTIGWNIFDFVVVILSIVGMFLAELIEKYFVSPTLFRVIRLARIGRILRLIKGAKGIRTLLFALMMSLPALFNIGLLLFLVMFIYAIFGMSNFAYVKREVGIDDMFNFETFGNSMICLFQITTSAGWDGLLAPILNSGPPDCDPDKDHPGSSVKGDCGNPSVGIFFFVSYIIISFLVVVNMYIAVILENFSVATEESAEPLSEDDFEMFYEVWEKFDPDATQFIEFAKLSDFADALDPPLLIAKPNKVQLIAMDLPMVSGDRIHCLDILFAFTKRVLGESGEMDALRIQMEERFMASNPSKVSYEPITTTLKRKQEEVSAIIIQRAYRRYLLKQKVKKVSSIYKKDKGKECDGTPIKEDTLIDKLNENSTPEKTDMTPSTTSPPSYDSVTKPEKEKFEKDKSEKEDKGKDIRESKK

With `NC1=N[C@H](O)[C@H]2[C@H]3O[C@]4(O)O[C@@H]([C@@H](O)[C@@]2(N1)[C@@H]4O)[C@]3(O)CO` [TTX, Tetrodotoxin], the Hm1a-evoked calcium responses entry in the data set with TG or DRG neurons was “blocked”.
Turning to `CC(C)C[C@@H]1NC(=O)[C@H](Cc2c[nH]cn2)NC(=O)[C@H](CCCCN)NC(=O)[C@@H]2CSSC[C@H](NC(=O)[C@H](CCC(=O)O)NC(=O)[C@@H](N)CO)C(=O)N[C@@H](CCCNC(=N)N)C(=O)N[C@@H](Cc3ccc(O)cc3)C(=O)N[C@@H](CC(C)C)C(=O)N[C@@H](Cc3ccccc3)C(=O)NCC(=O)NCC(=O)N[C@H]3CSSC[C@H](NC(=O)CNC1=O)C(=O)N[C@@H](CCCNC(=N)N)C(=O)N[C@@H]([C@@H](C)O)C(=O)N[C@@H](CC(=O)O)C(=O)N[C@@H](CC(C)C)C(=O)N[C@@H](Cc1ccc(O)cc1)C(=O)N[C@@H](Cc1ccc(O)cc1)C(=O)N[C@H](C(=O)N[C@@H](C)C(=O)N[C@@H](Cc1c[nH]c4ccccc14)C(=O)N[C@@H](CC(=O)O)C(=O)NCC(=O)N[C@H](C(=O)N[C@@H](Cc1ccccc1)C(=O)O)[C@@H](C)O)CSSC[C@H](NC(=O)[C@H](CC(=O)O)NC(=O)[C@H](C)NC(=O)[C@H]([C@@H](C)O)NC(=O)[C@H]([C@@H](C)O)NC(=O)[C@H](CO)NC3=O)C(=O)N2` [recombinant Hm1b[K11S]] (H-SECRYLFGGCSTTADCCKHLGCRTDLYYCAWDGTF-OH; disulfide 3-17, 10-22, 16-29), at hNav1.1 [1], the “fast inactivation and sustained current at end of depolarising pulse, hNav1.1” value is listed as “delayed fast inactivation”; the pEC50 is 7.40.
Consider `CSCC[C@@H]1NC(=O)[C@H](CC(C)C)NC(=O)[C@H](CCCNC(=N)N)NC(=O)[C@H](CO)NC(=O)[C@@H]2CSSC[C@@H]3NC(=O)[C@H](CO)NC(=O)CNC(=O)[C@H]([C@@H](C)O)NC(=O)[C@H](CSSC[C@H](N)C(=O)N[C@@H](CCCCN)C(=O)NCC(=O)N[C@@H](CCCCN)C(=O)NCC(=O)N[C@@H](C)C(=O)N[C@@H](CCCCN)C(=O)N2)NC(=O)[C@H](CSSC[C@@H](C(N)=O)NC(=O)[C@H](CCCCN)NC(=O)CNC(=O)[C@H](CO)NC(=O)[C@H](CCCNC(=N)N)NC3=O)NC(=O)[C@H](CC(=O)O)NC(=O)[C@H](Cc2ccc(O)cc2)NC1=O` [ω-conotoxin MVIIA], for which, in the data set “in vitro”, the fraction remaining at 72 h is about 10%.
Consider `CC(C)C[C@@H]1NC(=O)[C@H](Cc2c[nH]cn2)NC(=O)[C@H](CCCCN)NC(=O)[C@@H]2CSSC[C@H](NC(=O)[C@H](CCC(=O)O)NC(=O)[C@@H](N)CO)C(=O)N[C@@H](CCCNC(=N)N)C(=O)N[C@@H](Cc3ccc(O)cc3)C(=O)N[C@@H](CC(C)C)C(=O)N[C@@H](Cc3ccccc3)C(=O)NCC(=O)NCC(=O)N[C@H]3CSSC[C@H](NC(=O)CNC1=O)C(=O)N[C@@H](CCCNC(=N)N)C(=O)N[C@@H]([C@@H](C)O)C(=O)N[C@@H](CC(=O)O)C(=O)N[C@@H](CC(C)C)C(=O)N[C@@H](Cc1ccc(O)cc1)C(=O)N[C@@H](Cc1ccc(O)cc1)C(=O)N[C@H](C(=O)N[C@@H](C)C(=O)N[C@@H](Cc1c[nH]c4ccccc14)C(=O)N[C@@H](CC(=O)O)C(=O)NCC(=O)N[C@H](C(=O)N[C@@H](Cc1ccccc1)C(=O)O)[C@@H](C)O)CSSC[C@H](NC(=O)[C@H](CC(=O)O)NC(=O)[C@H](C)NC(=O)[C@H]([C@@H](C)O)NC(=O)[C@H]([C@@H](C)O)NC(=O)[C@H](CCCCN)NC3=O)C(=O)N2` [recombinant Hm1b], for which, at hNav1.1 [1], the “fast inactivation and sustained current at end of depolarising pulse, hNav1.1” value was “delayed fast inactivation and induced a sustained current”; the pEC50 was 7.73. In addition, at hNav1.1 [1] (sustained currents at 300 nM), the “selectivity for hNav1.1 over hNav1.2, hNav1.4, hNav1.5, hNav1.6 and hNav1.7” value is given as “very high level of selectivity”.
Turning to “ECRYLFGGCKTTADCCKHLGCRTDLYYCAWDGTF-NH2 [Hm1b]”, in the data set with hNav1.1 [2], the “voltage-dependence of fast inactivation of hNav1.1” value is recorded as “does not appear to alter” and the “voltage-dependence of steady-state activation of hNav1.1” value is on record as “slight hyperpolarizing shift”. In addition, the “time constants of fast inactivation of hNav1.1” value with hNav1.1 [2] (setting [3]) was “increases”. In addition, the hNav1.1 channel inactivation result with hNav1.1 [2] (1, 5 or 50 nM) is given as “potently inhibits”. For the same molecule, the “voltage-dependence of fast inactivation of hNav1.3” value with hNav1.3 was “does not appear to alter”. Besides, the hNav1.3 channel inactivation entry with hNav1.3 (5 nM and 50 nM) is on record as “slight inhibitory effect”. Moreover, in the data set with hNav1.3 (setting [3]), the “time constants of fast inactivation of hNav1.3” value was “increased”. For the same molecule, the “voltage-dependence of fast inactivation of hNav1.2” value in the data set with hNav1.2 is reported as “does not appear to alter”. In addition, the hNav1.2 channel inactivation entry with hNav1.2 (1 nM, 5 nM or 50 nM) is “did not have a significant effect”. The “time constants of fast inactivation of hNav1.2” value with hNav1.2 (50 nM, potentials more positive than −10 mV) is given as “increases”. For the same molecule, in the data set with hNav1.6, the “time constants of fast inactivation of hNav1.6” value is given as “did not have an effect” and the “voltage-dependence of fast inactivation of hNav1.6” value was “does not appear to alter”. The hNav1.6 channel inactivation result with hNav1.6 (5 nM and 50 nM, slight inhibitory effect, compared with hNav1.3) is listed as “to a lesser extent”.
With `O=C(Nc1ccc(S(=O)(=O)Nc2nccs2)cc1)C(c1ccccc1)c1ccccc1` [ICA-121431], in the data set on TG or DRG neurons (ICA-121431 500 nM), the “calcium responses induced by Hm1a” value is reported as “greatly diminish”. Moreover, the “responses to SGTx1” value in the data set on TG or DRG neurons (in presence of ICA-121431) is listed as “did not attenuate”.
